In PMC4488300:

Target: Francisella tularensis ssp. holarctica macrophage locus protein A (MglA) (F. tularensis ssp. holarctica) (UniProt Q5NFG1)
Experiment: cross-linking + SEC

“Francisella tularensis ssp. holarctica macrophage locus protein A (MglA) (from UniProt Q5NFG1 1-205) (natural protein)” gave a stoichiometry N of 2.
